{"source": "paper PMC9381590", "molecular_target": "endogenous PKM2 (human (endogenous in CRC cells)) (UniProt P14618)", "test": "not stated; monomeric, dimeric and tetrameric forms of endogenous PKM2 in HCT116 cells with or without DDX39B overexpression (Supplementary Fig. 7c)", "data": [{"substance": "endogenous PKM2, P14618 1-531 (natural protein; other documents disagree on this pair)", "values": [{"measurement": "stoichiometry N", "value": 2}]}]}
